Experiment [1] addresses T1, monkey PTK7 protein (extracellular sequence of monkey PTK7 with C-terminal 6×His tag) (monkey).
T1 chain: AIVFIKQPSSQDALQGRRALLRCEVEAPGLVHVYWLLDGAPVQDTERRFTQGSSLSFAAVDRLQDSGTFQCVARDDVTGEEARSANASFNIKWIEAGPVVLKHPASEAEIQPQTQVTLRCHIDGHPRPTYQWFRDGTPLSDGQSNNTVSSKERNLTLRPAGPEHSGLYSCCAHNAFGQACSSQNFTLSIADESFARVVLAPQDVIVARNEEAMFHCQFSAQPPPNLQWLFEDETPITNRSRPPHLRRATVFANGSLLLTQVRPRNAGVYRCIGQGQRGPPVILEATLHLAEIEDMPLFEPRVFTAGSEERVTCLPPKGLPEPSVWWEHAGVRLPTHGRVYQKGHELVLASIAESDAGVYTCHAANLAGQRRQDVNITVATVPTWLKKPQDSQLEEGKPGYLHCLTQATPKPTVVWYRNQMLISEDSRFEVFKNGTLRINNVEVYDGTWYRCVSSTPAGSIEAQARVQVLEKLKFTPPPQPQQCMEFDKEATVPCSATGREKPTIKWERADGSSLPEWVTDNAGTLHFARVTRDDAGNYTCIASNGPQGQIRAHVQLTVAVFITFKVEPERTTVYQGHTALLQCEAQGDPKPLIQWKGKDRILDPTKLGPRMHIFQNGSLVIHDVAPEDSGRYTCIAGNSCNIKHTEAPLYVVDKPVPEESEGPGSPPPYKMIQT
As to the kind of experiment: BLI (ForteBio), antibody on Protein A sensor, monkey PTK7 protein in solution. An excerpt:
(§1) The dynamic affinity of the control Hu24 and candidate antibodies 64A10HZ, 101A6HZ, 4E12HZ and 19C2HZ with human PTK7-His was detected by using ForteBio (Pall life sciences).
ELISA and ForteBio were adopted to detect binding of the anti-human PTK7 chimeric and humanized antibodies to the monkey, mouse and rat PTK7 proteins.
For orientation: In BLI a coated tip is dipped into the sample, and binding shifts an interference pattern.

The target in experiment [2] is T2, human PTK7 protein (extracellular sequence of human PTK7 with C-terminal 6×His tag) (human, UniProt Q13308 31-704).
T2 construct: extracellular domain; Expressed transiently in HEK293 cells; also called human PTK7-His; human PTK7-His protein
T2 sequence: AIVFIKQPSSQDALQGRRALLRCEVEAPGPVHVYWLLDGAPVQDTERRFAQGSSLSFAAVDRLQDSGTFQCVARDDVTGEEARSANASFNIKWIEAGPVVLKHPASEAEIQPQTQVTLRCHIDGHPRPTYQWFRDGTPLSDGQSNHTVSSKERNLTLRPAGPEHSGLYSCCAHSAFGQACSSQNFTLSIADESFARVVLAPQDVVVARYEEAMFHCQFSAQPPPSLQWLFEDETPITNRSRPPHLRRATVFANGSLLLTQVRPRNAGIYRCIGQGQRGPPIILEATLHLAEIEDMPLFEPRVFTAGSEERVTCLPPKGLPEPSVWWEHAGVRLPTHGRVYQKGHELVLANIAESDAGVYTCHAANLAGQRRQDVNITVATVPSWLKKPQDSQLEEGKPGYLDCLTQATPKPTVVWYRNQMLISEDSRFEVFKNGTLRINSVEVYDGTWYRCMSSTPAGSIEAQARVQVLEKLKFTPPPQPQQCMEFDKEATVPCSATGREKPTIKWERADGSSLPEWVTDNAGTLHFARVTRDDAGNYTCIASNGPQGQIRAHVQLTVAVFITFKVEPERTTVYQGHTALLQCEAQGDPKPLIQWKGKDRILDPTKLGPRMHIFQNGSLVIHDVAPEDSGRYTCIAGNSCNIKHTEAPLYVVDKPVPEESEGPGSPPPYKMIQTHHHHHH
Briefly: BLI (ForteBio), antibody on Protein A sensor, human PTK7-His 200-3.125 nM, 1:1 global fit.
Text: as §1

Experiment [3] deals with T3, human Fc receptor protein CD16a (human, UniProt P08637 17-208, biotinylated).
T3 construct: Biotinylated protein captured on SA sensors
T3 sequence (P08637 17-208 limits assumed): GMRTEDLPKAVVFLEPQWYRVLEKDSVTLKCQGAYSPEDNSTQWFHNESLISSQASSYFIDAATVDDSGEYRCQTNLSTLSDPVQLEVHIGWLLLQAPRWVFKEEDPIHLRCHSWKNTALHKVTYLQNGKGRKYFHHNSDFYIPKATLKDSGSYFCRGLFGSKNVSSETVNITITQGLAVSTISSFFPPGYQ
Briefly: BLI (ForteBio), biotinylated receptor on SA sensor, antibody from 5,000 nM, 1:1 global fit. From the text:
(§2) The dynamic affinity of the antibodies 101A6HZ, 101A6HZm and Hu24 with human Fc receptor proteins CD16a, CD32a, CD32b, CD64 and FcRn was detected through ForteBio (Pall life sciences).

Experiment [4] deals with T4, human Fc receptor protein CD32a (human, UniProt P12318 34-217, biotinylated).
T4 construct: Biotinylated protein captured on SA sensors
T4 sequence (looked up): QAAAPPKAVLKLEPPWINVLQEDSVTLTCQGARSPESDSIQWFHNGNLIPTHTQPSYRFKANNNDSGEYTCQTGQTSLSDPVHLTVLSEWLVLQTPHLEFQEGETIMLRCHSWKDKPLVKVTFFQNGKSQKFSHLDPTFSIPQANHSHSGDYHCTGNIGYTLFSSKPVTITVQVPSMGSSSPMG
The experiment is described as above.
Text: as §2

Experiment [5] concerns the target T5, human Fc receptor protein CD32b (human, UniProt P31994 43-217, biotinylated).
T5 construct: Biotinylated protein captured on SA sensors
T5 sequence (looked up): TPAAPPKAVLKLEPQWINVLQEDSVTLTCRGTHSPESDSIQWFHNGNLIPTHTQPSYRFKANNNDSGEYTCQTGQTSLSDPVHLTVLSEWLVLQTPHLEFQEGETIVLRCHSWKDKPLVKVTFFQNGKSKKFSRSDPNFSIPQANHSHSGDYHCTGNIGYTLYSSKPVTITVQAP
Described as above.
Text: as §2

Experiment [6] addresses T6, human Fc receptor protein CD64 (human, UniProt P12314 16-292, limits assumed, biotinylated).
T6 construct: Biotinylated protein captured on SA sensors
The experiment is described as above.
Text: as §2

Results on three molecules are retold here after patent US20260250420A1 (SICHUAN KELUN BIOTECH BIOPHARMACEUTICAL, published 2026).

In general, Kd refers to the equilibrium constant for the complex coming apart. Broadly, the koff is the rate constant with which the complex falls apart. Usually kon stands for the second-order rate constant of association.

T6 sequence (P12314 16-292 limits assumed): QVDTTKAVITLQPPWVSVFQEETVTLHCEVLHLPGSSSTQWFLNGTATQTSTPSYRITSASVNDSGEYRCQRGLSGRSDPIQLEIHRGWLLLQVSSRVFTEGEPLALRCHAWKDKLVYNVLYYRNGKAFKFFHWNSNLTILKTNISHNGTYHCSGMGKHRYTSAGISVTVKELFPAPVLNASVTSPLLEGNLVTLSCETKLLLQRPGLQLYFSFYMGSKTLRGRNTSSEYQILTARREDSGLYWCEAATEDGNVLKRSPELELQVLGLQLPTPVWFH

B1: Hu24 (PTK7 control antibody, taken from Hu24 in the Patent CN201580030255) (antibody)
chain 1: QVQLVQSGPEVKKPGASVKVSCKASGYTFTDYAVHWVRQAPGKRLEWIGVISTYNDYTYNNQDFKGRVTMTRDTSASTAYMELSRLRSEDTAVYYCARGNSYFYALDYWGQGTSVTVSS
chain 2: EIVLTQSPATLSLSPGERATLSCRASESVDSYGKSFMHWYQQKPGQAPRLLIYRASNLESGIPARFSGSGSGTDFTLTISSLEPEDFAVYYCQQSNEDPWTFGGGTKLEIK
Consider B1, for which the dissociation constant Kd in experiment [1] was 11.9 nM; in experiment [2] it was 4.96 nM; in experiment [3] it was 1190 nM; in experiment [4], 1730 nM; in experiment [5] it was 1760 nM; in experiment [6], 0.465 nM. The molecule also displayed a dissociation rate constant (koff) in experiment [2] of 0.00105 s⁻¹. The molecule also had an on-rate constant (kon) in experiment [2] of 211000 M⁻¹ s⁻¹.

B2: 64A10HZ (anti-human PTK7 humanized antibody) (antibody, human IgG1, kappa, V domains shown)
VH: QVQLQESGPGLVKPSETLSLTCTVSGFSLTSYGVYWVRQPPGKGPEWLGVIWTSGNTNYNPSLKSRLTISKDNSKNQVSLKLSSVTAADTAVYYCVKHDGGNYVGVMNYWGQGTLVTVSS
VL: EIVMTQSPDFQSVTPKEKVTITCRASQSISDYLHWYQQKPDQSPKLLIKYASQSISGVPSRFSGSGSGSDFTLTINSLEAEDAATYYCQNGHSFPPTFGQGTKLEIKR
notes: Human IgG1 heavy chain constant region and human Kappa light chain constant region; expressed in CHO-S cells
As to B2, the Kd in experiment [1] is 26.7 nM. Moreover, in experiment [2], the Kd turned out to be 10.9 nM, the dissociation rate constant (koff) was found to be 0.00278 s⁻¹ and the kon is 255000 M⁻¹ s⁻¹.

B3: 101A6HZ (anti-human PTK7 humanized antibody) (antibody, human IgG1, kappa)
heavy: not shown
light: DIVMTQSPDSLAVSLGERATINCKASQDVGSAVIWYQQKPGQSPKLLIYWASTRHTGVPDRFSGSGSGTDFTLTISSLQAEDVAVYYCQQYSSYPLTFGQGTKLEIKRTVAAPSVFIFPPSDEQLKSGTASVVCLLNNFYPREAKVQWKVDNALQSGNSQESVTEQDSKDSTYSLSSTLTLSKADYEKHKVYACEVTHQGLSSPVTKSFNRGEC
Take B3: the Kd in experiment [1] stood at 134 nM; in experiment [2], 42.4 nM; in experiment [3], 1010 nM; in experiment [4] it was 2270 nM; in experiment [5], 1780 nM; in experiment [6] it was 0.508 nM. Moreover, the koff in experiment [2] was 0.00566 s⁻¹. Moreover, the association rate constant (kon) in experiment [2] was found to be 134000 M⁻¹ s⁻¹.
